# T1: FcγRIIb extracellular domain with C-terminal His tag (human, UniProt P31994 43-217)
# T1 construct: extracellular domain; also called FcgRIIb; 2b; not shown: His tag at the C terminus
# T1 sequence (looked up): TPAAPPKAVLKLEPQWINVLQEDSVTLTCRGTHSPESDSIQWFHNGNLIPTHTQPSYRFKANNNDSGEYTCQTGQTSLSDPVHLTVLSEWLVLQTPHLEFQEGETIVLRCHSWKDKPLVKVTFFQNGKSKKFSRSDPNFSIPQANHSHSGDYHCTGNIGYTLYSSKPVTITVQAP
# T2: FcγRIIa H (FcγRIIa type H, His at position 131), extracellular domain with C-terminal His tag (human, UniProt P12318 34-217)
# T2 construct: extracellular domain; also called 2aH; FcgRIIa H; not shown: His tag at the C terminus
# T2 sequence (looked up): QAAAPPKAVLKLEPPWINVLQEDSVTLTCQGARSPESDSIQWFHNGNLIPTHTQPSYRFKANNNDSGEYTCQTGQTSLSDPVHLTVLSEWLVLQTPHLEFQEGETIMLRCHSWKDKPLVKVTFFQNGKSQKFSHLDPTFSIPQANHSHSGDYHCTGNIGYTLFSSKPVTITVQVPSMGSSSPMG
# T3: FcγRIIb, extracellular domain with C-terminal His tag (human, UniProt P31994 43-217)
# T3 construct: extracellular domain; also called 2b; FcgRIIb; not shown: His tag at the C terminus
# T3 sequence (looked up): T1 sequence (looked up)
# B1: GpH7-A5/GpH7-B3 variant S239_01G/GpL16-k0 (antibody, human IgG1, kappa)
# heavy 1: not shown
# heavy 2: not shown
# light: DIVMTQSPLSLPVTPGEPASISCQASESLVHSNRNTYLHWYLQKPGQSPQLLIYKVSNRFSGVPDRFSGSGSGTDFTLKISRVEAEDVGVYYCSQNTHVPPTFGQGTKVEIERTVAAPSVFIFPPSDEQLKSGTASVVCLLNNFYPREAKVQWKVDNALQSGNSQESVTEQDSKDSTYSLSSTLTLSKADYEKHKVYACEVTHQGLSSPVTKSFNRGEC
# notes: Heterodimerized anti-glypican-3 IgG1; the substitution stands in the GpH7-B3 chain only; also called He Ab
# B2: GpH7-A5/GpH7-B3 variant P238_20W/GpL16-k0 (antibody, human IgG1, kappa)
# heavy 1: not shown
# heavy 2: not shown
# light: B1 light
# notes: as for B1
# B3: GpH7-A5/GpH7-B3 variant S239_07I/GpL16-k0 (antibody, human IgG1, kappa)
# heavy 1: not shown
# heavy 2: not shown
# light: B1 light
# notes: as for B1
# B4: GpH7-A5/GpH7-B3 variant S239_15Y/GpL16-k0 (antibody, human IgG1, kappa)
# heavy 1: not shown
# heavy 2: not shown
# light: B1 light
# notes: as for B1
# B5: GpH7-A5/GpH7-B3 variant S239_05P/GpL16-k0 (antibody, human IgG1, kappa)
# heavy 1: not shown
# heavy 2: not shown
# light: B1 light
# notes: as for B1
# B6: GpH7-A5/GpH7-B3 variant P238_19Q/GpL16-k0 (antibody, human IgG1, kappa)
# heavy 1: not shown
# heavy 2: not shown
# light: B1 light
# notes: as for B1
# B7: GpH7-A5/GpH7-B3 variant S239_08L/GpL16-k0 (antibody, human IgG1, kappa)
# heavy 1: not shown
# heavy 2: not shown
# light: B1 light
# notes: as for B1
# B8: GpH7-A5/GpH7-B3 variant S239_11K/GpL16-k0 (antibody, human IgG1, kappa)
# heavy 1: not shown
# heavy 2: not shown
# light: B1 light
# notes: as for B1
# B9: GpH7-A5/GpH7-B3 variant D265_01G/GpL16-k0 (antibody, human IgG1, kappa)
# heavy 1: not shown
# heavy 2: not shown
# light: B1 light
# notes: as for B1
# B10: GpH7-A5/GpH7-B3 variant P238_18N/GpL16-k0 (antibody, human IgG1, kappa)
# heavy 1: not shown
# heavy 2: not shown
# light: B1 light
# notes: as for B1
# B11: GpH7-A5/GpH7-B3 variant S239_12R/GpL16-k0 (antibody, human IgG1, kappa)
# heavy 1: not shown
# heavy 2: not shown
# light: B1 light
# notes: as for B1
# B12: GpH7-A5/GpH7-B3 variant S239_03V/GpL16-k0 (antibody, human IgG1, kappa)
# heavy 1: not shown
# heavy 2: not shown
# light: B1 light
# notes: as for B1
# B13: GpH7-A5/GpH7-B3 variant S239_06M/GpL16-k0 (antibody, human IgG1, kappa)
# heavy 1: not shown
# heavy 2: not shown
# light: B1 light
# notes: as for B1
# B14: GpH7-A5/GpH7-B3 variant P238_16H/GpL16-k0 (antibody, human IgG1, kappa)
# heavy 1: not shown
# heavy 2: not shown
# light: B1 light
# notes: as for B1
# B15: GpH7-A5/GpH7-B3 variant S239_04F/GpL16-k0 (antibody, human IgG1, kappa)
# heavy 1: not shown
# heavy 2: not shown
# light: B1 light
# notes: as for B1
# B16: GpH7-A5/GpH7-B3 variant V266_14T/GpL16-k0 (antibody, human IgG1, kappa)
# heavy 1: not shown
# heavy 2: not shown
# light: B1 light
# notes: Heterodimerized IgG1 (He Ab); mutation only in the GpH7-B3 chain; also called He Ab V266T
# B17: GpH7-A5/GpH7-B3 variant V266_15Y/GpL16-k0 (antibody, human IgG1, kappa)
# heavy 1: not shown
# heavy 2: not shown
# light: B1 light
# notes: Heterodimerized IgG1 (He Ab); mutation only in the GpH7-B3 chain; also called He Ab V266Y
# Target: T4, FcγRIIIa extracellular domain with C-terminal His tag (human, UniProt P08637 17-208)
# T4 construct: extracellular domain; also called FcgRIIIa; 3a; not shown: His tag at the C terminus
# T4 sequence (P08637 17-208): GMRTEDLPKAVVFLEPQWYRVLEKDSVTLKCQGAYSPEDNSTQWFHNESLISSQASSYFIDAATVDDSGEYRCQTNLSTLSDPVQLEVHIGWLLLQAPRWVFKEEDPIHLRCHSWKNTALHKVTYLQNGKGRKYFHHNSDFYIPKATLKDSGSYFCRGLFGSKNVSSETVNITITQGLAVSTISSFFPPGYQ
# Assay: SPR (Biacore), antibody captured on antigen peptide chip, FcγR as analyte; relative binding amount
# Method: (§1) Analysis of interaction between objective antibody and the FcγR was carried out using Biacore T100 (GE Healthcare). HBS-EP+ (GE Healthcare) was used as the running buffer, and the measurement temperature was set to 25° C. Chips produced by immobilizing the antigen peptide by the amine coupling method to a Series S Sencor Chip CM5 (GE Healthcare), or alternatively, chips produced by allowing preliminarily biotinylated antigen peptides to interact with and immobilize onto a Series S Sensor Chip SA (certified) (GE Healthcare) were used. Antibodies of interest were captured onto an antigen peptide-immobilized chip, and allowed to interact to each FcγR diluted with running buffer. To regenerate and repeatedly use the chip, the antibodies captured on the chip were washed off by reacting 10 mM glycine-HCl, pH 1.5.
# (§2) The FcγR-binding activity of each antibody was assessed primarily using as an indicator the FcγR-binding activity and dissociation constant for FcγR.
row,He/Con_3a,Binder
1,76.2 % of GpH7-A5/GpH7-B3/GpL16-k0 (=100),B1
2,49.7 % of GpH7-A5/GpH7-B3/GpL16-k0 (=100),B2
3,79.3 % of GpH7-A5/GpH7-B3/GpL16-k0 (=100),B3
4,25.6 % of GpH7-A5/GpH7-B3/GpL16-k0 (=100),B4
5,14.9 % of GpH7-A5/GpH7-B3/GpL16-k0 (=100),B5
6,55.8 % of GpH7-A5/GpH7-B3/GpL16-k0 (=100),B6
7,95.3 % of GpH7-A5/GpH7-B3/GpL16-k0 (=100),B7
8,11.9 % of GpH7-A5/GpH7-B3/GpL16-k0 (=100),B8
9,4.5 % of GpH7-A5/GpH7-B3/GpL16-k0 (=100),B9
10,40.4 % of GpH7-A5/GpH7-B3/GpL16-k0 (=100),B10
11,17 % of GpH7-A5/GpH7-B3/GpL16-k0 (=100),B11
12,76.6 % of GpH7-A5/GpH7-B3/GpL16-k0 (=100),B12
13,78.2 % of GpH7-A5/GpH7-B3/GpL16-k0 (=100),B13
14,30.7 % of GpH7-A5/GpH7-B3/GpL16-k0 (=100),B14
15,25.3 % of GpH7-A5/GpH7-B3/GpL16-k0 (=100),B15

# Target: T1, FcγRIIb extracellular domain with …
# Assay: as above
# Method: as §1, §2
row,He/Con_2b,Binder
1,144 % of GpH7-A5/GpH7-B3/GpL16-k0 (=100),B1
2,123 % of GpH7-A5/GpH7-B3/GpL16-k0 (=100),B2
3,107 % of GpH7-A5/GpH7-B3/GpL16-k0 (=100),B3
4,34.9 % of GpH7-A5/GpH7-B3/GpL16-k0 (=100),B4
5,102 % of GpH7-A5/GpH7-B3/GpL16-k0 (=100),B5
6,110 % of GpH7-A5/GpH7-B3/GpL16-k0 (=100),B6
7,140 % of GpH7-A5/GpH7-B3/GpL16-k0 (=100),B7
8,24.7 % of GpH7-A5/GpH7-B3/GpL16-k0 (=100),B8
9,16.1 % of GpH7-A5/GpH7-B3/GpL16-k0 (=100),B9
10,73.2 % of GpH7-A5/GpH7-B3/GpL16-k0 (=100),B10
11,39.1 % of GpH7-A5/GpH7-B3/GpL16-k0 (=100),B11
12,108 % of GpH7-A5/GpH7-B3/GpL16-k0 (=100),B12
13,101 % of GpH7-A5/GpH7-B3/GpL16-k0 (=100),B13
14,115 % of GpH7-A5/GpH7-B3/GpL16-k0 (=100),B14
15,44.1 % of GpH7-A5/GpH7-B3/GpL16-k0 (=100),B15

# Target: T2, FcγRIIa H (FcγRIIa type H, His at …)
# Assay: SPR (Biacore), antibody captured on antigen-peptide chip, FcγR as analyte; GpH7-A5/GpH7-B3/GpL16-k0 = 100
# Method: (§3) The heterodimerized antibodies He Abs in which one of the H chains was introduced with an alteration were assayed for their binding activities to each activating FcγR and inhibitory FcγR according to the method described in Example 4. […] The activating FcγRs in FIGS. 26, 27, 28, and 29 are FcγRIa, FcγRIIa (R), FcγRIIa (H), and FcγRIIIa, respectively.
# as §1
row,He/Con_2aH (relative binding activity),Binder
1,43.3 % of control,B16
2,18.1 % of control,B17

# Target: T3, FcγRIIb, extracellular domain with …
# Assay: as above
# Method: as §3, §1
row,He/Con_2b (relative binding activity),Binder
1,82.3 % of control,B16
2,49.4 % of control,B17

# Target: T2, FcγRIIa H (FcγRIIa type H, His at …)
# Assay: ratio of He/Con_2aH (FcγRIIa H) to He/Con_2b (FcγRIIb), SPR relative binding
# Method: as §3, §1
row,He_2aH/2b (IIaH/IIb ratio),Binder
1,0.53,B16
2,0.37,B17

# Target: T4, FcγRIIIa extracellular domain with …
# Assay: SPR; He/Con_3a divided by He/Con_2b (binding to FcγRIIb is the reference)
# Method: as §1, §2
row,He_3a/2b (IIIa/IIb),Binder
1,0.53 ratio,B1
2,0.4 ratio,B2
3,0.74 ratio,B3
4,0.73 ratio,B4
5,0.15 ratio,B5
6,0.51 ratio,B6
7,0.68 ratio,B7
8,0.48 ratio,B8
9,0.28 ratio,B9
10,0.55 ratio,B10
11,0.44 ratio,B11
12,0.71 ratio,B12
13,0.78 ratio,B13
14,0.27 ratio,B14
15,0.57 ratio,B15

# Reference: patent publication US20180155451A1 (published 2018)
